Laboratory results published in publication PMC4061085.

How the values were obtained:
[1] = biological target: CK1δ KD (kinase domain of CK1δ) (rat) (UniProt Q06486)
[2] = biological target: CK1δ from rat as GST-tagged fusion protein (rat) (UniProt Q06486)
[3] = biological target: CK1ε from human as HIS-tagged fusion protein (human) (UniProt P49674)
UniProt P49674, sequence (P49674 whole entry, the tested form may be a part): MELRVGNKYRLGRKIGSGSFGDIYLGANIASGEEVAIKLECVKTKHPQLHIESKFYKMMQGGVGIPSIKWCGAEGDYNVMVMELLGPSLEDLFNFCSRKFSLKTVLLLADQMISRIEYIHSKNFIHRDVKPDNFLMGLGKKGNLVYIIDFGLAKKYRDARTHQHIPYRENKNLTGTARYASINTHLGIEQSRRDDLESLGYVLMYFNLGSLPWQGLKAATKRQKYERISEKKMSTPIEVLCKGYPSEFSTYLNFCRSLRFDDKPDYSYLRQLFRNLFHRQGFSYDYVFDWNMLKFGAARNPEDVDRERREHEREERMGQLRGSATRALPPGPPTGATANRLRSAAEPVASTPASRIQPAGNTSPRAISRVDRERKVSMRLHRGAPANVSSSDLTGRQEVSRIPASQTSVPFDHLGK

Substance	Km of phosphorylation of GST-tubulin by the CK1 isoform (Michaelis-Menten kinetics, in vitro kinase assay, 32P incorporation, 30 min at 30°C) [1]	Km of phosphorylation of GST-tubulin by the CK1 isoform (Michaelis-Menten kinetics, in vitro kinase assay, 32P incorporation, 30 min at 30°C) [2]	Km of phosphorylation of GST-tubulin by the CK1 isoform (Michaelis-Menten kinetics, in vitro kinase assay, 32P incorporation, 30 min at 30°C) [3]
Recombinant human α-tubulin1B (GST-tubulin) (from UniProt P68363 1-451) (natural protein)	0.266 µM	0.205 µM	0.329 µM
Recombinant human α-tubulin4A (GST-tubulin) (from UniProt P68366 1-448) (natural protein)	0.438 µM	0.337 µM	0.602 µM
Recombinant human β-tubulin2A (GST-tubulin) (from UniProt Q13885 1-445) (natural protein)	1.47 µM	1.17 µM	1.41 µM
